The chains are these.
B1: TTC7B-FAM126A (1 to 308) mutant TTC7B:A702R [human] / EFR3A (721 to 791) [human] (parent)
chain 1: MATKKAGSRLETEIERCRSECQWERIPELVKQLSAKLIANDDMAELLLGESKLEQYLKEHPLRQGASPRGPKPQLTEVRKHLTAALDRGNLKSEFLQESNLIMAKLNYVEGDYKEALNIYARVGLDDLPLTAVPPYRLRVIAEAYATKGLCLEKLPISSSTSNLHVDREQDVITCYEKAGDIALLYLQEIERVILSNIQNRSPKPGPAPHDQELGFFLETGLQRAHVLYFKNGNLTRGVGRFRELLRAVETRTTQNLRMTIARQLAEILLRGMCEQSYWNPLEDPPCQSPLDDPLRKGANTKTYTLTRRARVYSGENIFCPQENTEEALLLLLISESMANRDAVLSRIPEHKSDRLISLQSASVVYDLLTIALGRRGQYEMLSECLERAMKFAFEEFHLWYQFALSLMAAGKSARAVKVLKECIRLKPDDATIPLLAAKLCMGSLHWLEEAEKFAKTVVDVGEKTSEFKAKGYLALGLTYSLQATDASLRGMQEVLQRKALLAFQRAHSLSPTDHQAAFYLALQLAISRQIPEALGYVRQALQLQGDDANSLHLLALLLSAQKHYHDALNIIDMALSEYPENFILLFSKVKLQSLCRGPDEALLTCKHMLQIWKSCYNLTNPSDSGRGSSLLDRTIADRRQLNTITLPDFSDPETGSVHATSVAASRVEQALSEVASSLQSSAPKQGPLHPWMTLAQIWLHAAEVYIGIGKPAEATACTQEAANLFPMSHNVLYMRGQIAELRGSMDEARRWYEEALAISPTHVKSMQRLALILHQLGRYSLAEKILRDAVQVNSTAHEVWNGLGEVLQAQGNDAAATECFLTALELEASSPAVPFTIIPRVL
chain 2: MFTSEKGVVEEWLSEFKTLPETSLPNYATNLKDKSSLVSSLYKVIQEPQSELLEPVCHQLFEFYRSGEEQLLQFTLQFLPELIWCYLAVSASRNVHSSGCIEALLLGVYNLEIVDKQGHTKVLSFTIPSLSKPSVYHEPSSIGSMALTESALSQHGLSKVVYSGPHPQREMLTAQNRFEVLTFLLLCYNAALTYMPSVSLQSLCQICSRICVCGYPRQHVRKYKGISSRIPVSSGFMVQMLTGIYFAFYNGEWDLAQKALDDIIYRAQLELYPEPLLVANAIKASLPHGPMKSNKEGTRCIQVEITPT
chain 3: SNTEEITFEALKKAIDTSGMEEQEKEKRRLVIEKFQKAPFEEIAAQCESKANLLHDRLAQILELTIRPPPS

Variants of B1 are the subject of the first assay. Briefly: BLI. Conditions: with EFR3A (721 to 791) [human]; His-EFR3A loaded on the anti-penta-His tip at 200 nM, TTC7B-FAM126A at 500 nM; 25°C; 20 mM HEPES (pH 7.5), 150 mM NaCl; read off a plot.
chain 1 A702R: the response was -0.07 nm.

In the case of chain 2 A103R, the response was found to be 0.08 nm.

On to chain 2 F61A, for which the response came to 0.37 nm.

Take chain 1 R539E: the response is 1.2 nm.

With chain 1 L610A, the response came out at 0.85 nm.

As for chain 1 W699A, the response was 1.4 nm.

Turning to chain 2 H58E, the response was determined as 1.6 nm.

With chain 2 L106F, the response came out at 1.1 nm.

Staying with this assay, now noted: with TTC7B-FAM126A (1 to 308) [human]; His-EFR3A loaded on the anti-penta-His tip at 200 nM, TTC7B-FAM126A at 500 nM; 25°C; 20 mM HEPES (pH 7.5), 150 mM NaCl; read off a plot.
For chain 3 A14R, the response came out at 0.23 nm.

For the variant chain 3 K12E, the response amounted to 0.27 nm.

Regarding chain 3 F8A, the response came out at 0.47 nm.

For chain 3 F40A, the response came to 0.84 nm.

On to chain 3 F35A, for which the response was -0.02 nm.

Consider chain 3 I61A, for which the response was determined as 1.5 nm.

For the variant chain 3 L11A, the response worked out at 0.01 nm.

In the case of chain 3 L11R, the response worked out at 0.17 nm.

As for chain 3 I43A, the response is 0.45 nm.

For chain 3 K50E, the response is 0.82 nm.

For chain 3 R57E, the response was found to be 1.3 nm.

Source of the values: PMC11661448.
